Test results as given in the nanobody polyreactivity screen of Harvey et al. (2022).

Test: yeast display, Sf9 membrane polyspecificity reagent, FACS + sequencing; frameworks hold sequencing errors
In short: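 Sorting gates, low and high (top ~1%), were placed on anti-HA fluorescence to track expression and on streptavidin fluorescence to track reagent binding. A clone's polyreactivity label is taken from the gate it came out of. The reagent was 10% biotinylated, detergent-solubilized Sf9 membrane, applied for 1 hour at 4 °C to galactose-induced yeast display cells.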

Sequence | polyreactivity (PSR sort gate)
QVQLVESGGGLVQAGGSLRLSCAASGSIFVGYAMGWYRQAPGKEREFVAAISQRGTRTYYADSVKGRFTISRDNAKNTVYLQMNSLKPEDTAVYYCAARGWDQRSDYWGQGTQVIVSS | high polyreactivity
QVKLVESGGGLVQAGGSLRLSCAASGSTVVFNTMGWYRQAPGKERELVAAISTGDSTKYADSVKGRFTISRDNAKITVYLQMNSLKPVDTAVDYCAADTQDRTYYGWRQVGGYDYWGQGTQVTVSS | low polyreactivity
QVQLVESGGGLVQAGGSLRLSCAASGGIFGYYVMGWYRQAPGKERELVAVITRGGSTNYADSLKGRFTISRDNAKNTVYLQMNSLKPEDTAVYYCNAGPAGYYDYDYWGQGTQVTVSS | low polyreactivity
QVQLVESGGGLVQAGGSLRLSCAASGRIFPKYAMVWYRQAPGKERELVAGITKRVGSTYYADSVKGRFTISRDNAKNTVYLQMNSLKPEDTAVYYCAADYRYLIDYLDPEKEGMDYWGQGTQVTVSS | low polyreactivity
QVQLVESGGGLVQAGGSLRLSCAASGGMGWYRQAPGKERELVATISSVGSTNYADSVKGRFTISRDNAKNTVYLQMNRLKPEDTAVYYCNATGVQYFLYGYWGQGTQVTVSS | low polyreactivity
QVQLVESGGGLVQAGGSLRLSCAASGSIFWYNAMGWYRQAPGKERELVAAISRSGSRTYYADSVKGRFTISRDNAKNTVYVQMTSLKPEATAVYYCARVRPRGLYFVLHYDYWGQGTQVTVSS | high polyreactivity
QVQLVESGGGLVQAGGSLRLICAASGFTLDWYVMGWYRQAPGKERELVAAISSSGGRTYYADSVKGRFTISRDNEKNTVYLQMNSLKPEDPAVYYCAARNKYGGYPYGYDYWGQGTQVTVSS | high polyreactivity
QVQLVESGGGLVQAGGSLRLSCAASGSTFWVYTMGWYRQAPGKERALVAAINYSDGSTYYADSVKGRFTISRENAKNTVYLQMNSLKPEDTAVYYCAAGSDPTGRRYEYWGQGTQVTVSS | low polyreactivity
QVQLVESGGGLVQAGGSLRLSCAASGRTLSRNAMGWYRQAPGKERELVAAINYSGGITYYADSVKGRFTISRDNAKNTVYLQMNSLKPEDTAVYYCAATVKYWGQGTQVTVSS | high polyreactivity
QVHLVESGGGLVQAGGSLRLSCAASGITFRSYAMGWYRQAPGKERELVAAISTSGGRTYYADSVKGRFTISRDNAKNTVYLQMNSLKPEDTAVYYCNKVGGVYGYYAYGLGYWGQGTQVTVSS | high polyreactivity
QVQLVESGGGLVQAGGSLRLSCAASGRTLKYNAMGWYRQAPGKERELVAAISYSGSSTYYADSVNGRFTISRDKAKHTVYLQMNSLKPEDTEVYYCNTARPTAAYDYWGQGTQVTVSS | low polyreactivity
QVQLVESGGGLVQAGGSLRLSCAASGSIFNRYTMGWYRQAPGKERELVAAISKRGGSTYYADSVKGRFTISRDNAKNTVYLQMNSLKPEDTAVYYCAAAGYHSGKGGGYWGQGTQVTVSS | high polyreactivity
QVQLVESGGGLVQAGGSRRLSCAASGRTFQYYAMGCYRQAPGKERELVASITYNGDITYYADSVKGRFTISRDNAKNTVYLQMNSLKPEDTAVYYCAATKFSDFGYQAVIGYGYWGQGTQVTVSS | low polyreactivity
QVQLVESVGGLVQAGVSLRLSGAASGNTFVPYAMGWSRQAPGKESELVAAISLRGGSTYYADSVKGRFTISRDNAKNTVYLQMNSLKPEDTAVYYCAARTFYRPGLAGGYWGQGTQVTVAS | high polyreactivity
QVQLVESGGGLVQAGGSLRLSCAASGLIFDTNAMGWYRQAPGKERELVAAISLDGGSTYYADSVKGRFTISRDNAKNTVYLQMNSLKPEDTAVYYCNADYYANSITYDSWGQGTQVTVSS | low polyreactivity
QVQLVESGGGLLQAGGSLRLSCAASGRTFPYYAMGWYRQAPGKERELVAAISSSGGSTYYADSVKGRFTISRDNAKNTVYLEMNSLKPEDTEVYYCAAVYQFIKWGDSYEYWGQGTQVTVSS | high polyreactivity
QVQHVESGGGLVQAGGSLRLSCAASGSIFNYYAMGWYRQAPGKERELVAAISKTGGSTYYADSVKGRFTISRDNAKNTVYLQMNSLKPEDTAVYYCNAVYASVSPTPYGYWGQGTQVTVSS | high polyreactivity
